Residue numbers refer to the chain shown, from its start. Names and notes keep the numbering of the source.
B1: GLS3000 G91S one-arm antibody (antibody, human IgG1, kappa, L234A L235A, N297A, name in Kabat numbering)
light: DIVMTQSPLSLPVTPGEPASISCRSSQSLVHSNRNTYLHWYQQKPGQAPRLLIYKVSNRFSGVPDRFSGSGSGTDFTLKISRVEAEDVGVYYCGQSTQVPYTFGQGTKLEIKRTVAAPSVFIFPPSDEQLKSGTASVVCLLNNFYPREAKVQWKVDNALQSGNSQESVTEQDSKDSTYSLSSTLTLSKADYEKHKVYACEVTHQGLSSPVTKSFNRGEC
heavy: QVQLVESGGGVVQPGRSLRLSCAASGFTFSNAWMHWVRQAPGKGLEWVAQIKAKSNNYATYYAESVKGRFTISRDDSKNSLYLQMNSLKTEDTAVYYCRYVHYGAYYGVDAWGQGTTVTVSSASTKGPSVFPLAPSSKSTSGGTAALGCLVKDYFPEPVTVSWNSGALTSGVHTFPAVLQSSGLYSLSSVVTVPSSSLGTQTYICNVNHKPSNTKVDKKVEPKSCDKTHTCPPCPAPEAAGGPSVFLFPPKPKDTLMISRTPEVTCVVVDVSHEDPEVKFNWYVDGVEVHNAKTKPREEQYASTYRVVSVLTVLHQDWLNGKEYKCKVSNKALPAPIEKTISKAKGQPREPQVYTLPPSRCELTKNQVSLSCAVKGFYPSDIAVEWESNGQPENNYKTTPPVLDSDGSFFLVSKLTVDKSRWQQGNVFSCSVMHEALHNHYTQKSLSLSPDYKDDDDK
chain: EPKSSDKTHTCPPCPAPELLGGPSVFLFPPKPKDTLMISRTPEVTCVVVDVSHEDPEVKFNWYVDGVEVHNAKTKPREEQYNSTYRVVSVLTVLHQDWLNGKEYKCKVSNKALPAPIEKTISKAKGQPREPQVCTLPPSRDELTKNQVSLWCLVKGFYPSDIAVEWESNGQPENNYKTTPPVLDSDGSFFLYSKLTVDKSRWQQGNVFSCSVMHEALHNRYTQKSLSLSP
B2: GLS3000 H34V one-arm antibody (antibody, human IgG1, kappa, L234A L235A, N297A, name in Kabat numbering)
light: B1 light with H39V, S96G
heavy: B1 heavy
chain: B1 chain
B3: GLS3000 K50G one-arm antibody (antibody, human IgG1, kappa, L234A L235A, N297A, name in Kabat numbering)
light: B1 light with K55G, S96G
heavy: B1 heavy
chain: B1 chain
B4: GLS3000 K50Q one-arm antibody (antibody, human IgG1, kappa, L234A L235A, N297A, name in Kabat numbering)
light: B1 light with K55Q, S96G
heavy: B1 heavy
chain: B1 chain
B5: GLS3000 L33M one-arm antibody (antibody, human IgG1, kappa, L234A L235A, N297A, name in Kabat numbering)
light: B1 light with L38M, S96G
heavy: B1 heavy
chain: B1 chain
B6: GLS3000 H34S one-arm antibody (antibody, human IgG1, kappa, L234A L235A, N297A, name in Kabat numbering)
light: B1 light with H39S, S96G
heavy: B1 heavy
chain: B1 chain
B7: GLS3000 L33E one-arm antibody (antibody, human IgG1, kappa, L234A L235A, N297A, name in Kabat numbering)
light: B1 light with L38E, S96G
heavy: B1 heavy
chain: B1 chain
B8: GLS3000 H34M one-arm antibody (antibody, human IgG1, kappa, L234A L235A, N297A, name in Kabat numbering)
light: B1 light with H39M, S96G
heavy: B1 heavy
chain: B1 chain
B9: GLS3000 H34W one-arm antibody (antibody, human IgG1, kappa, L234A L235A, N297A, name in Kabat numbering)
light: B1 light with H39W, S96G
heavy: B1 heavy
chain: B1 chain
B10: GLS3000 K50S one-arm antibody (antibody, human IgG1, kappa, L234A L235A, N297A, name in Kabat numbering)
light: B1 light with K55S, S96G
heavy: B1 heavy
chain: B1 chain
B11: GLS3000 H34K one-arm antibody (antibody, human IgG1, kappa, L234A L235A, N297A, name in Kabat numbering)
light: B1 light with H39K, S96G
heavy: B1 heavy
chain: B1 chain
B12: GLS3000 K50P one-arm antibody (antibody, human IgG1, kappa, L234A L235A, N297A, name in Kabat numbering)
light: B1 light with K55P, S96G
heavy: B1 heavy
chain: B1 chain
B13: GLS3000 H34R one-arm antibody (antibody, human IgG1, kappa, L234A L235A, N297A, name in Kabat numbering)
light: B1 light with H39R, S96G
heavy: B1 heavy
chain: B1 chain
B14: GLS3000 K50E one-arm antibody (antibody, human IgG1, kappa, L234A L235A, N297A, name in Kabat numbering)
light: B1 light with K55E, S96G
heavy: B1 heavy
chain: B1 chain
B15: GLS3000 H34T one-arm antibody (antibody, human IgG1, kappa, L234A L235A, N297A, name in Kabat numbering)
light: B1 light with H39T, S96G
heavy: B1 heavy
chain: B1 chain
B16: GLS3000 K50R one-arm antibody (antibody, human IgG1, kappa, L234A L235A, N297A, name in Kabat numbering)
light: B1 light with K55R, S96G
heavy: B1 heavy
chain: B1 chain
B17: GLS3000 L33F one-arm antibody (antibody, human IgG1, kappa, L234A L235A, N297A, name in Kabat numbering)
light: B1 light with L38F, S96G
heavy: B1 heavy
chain: B1 chain
B18: GLS3000 H34G one-arm antibody (antibody, human IgG1, kappa, L234A L235A, N297A, name in Kabat numbering)
light: B1 light with H39G, S96G
heavy: B1 heavy
chain: B1 chain
B19: GLS3000 G91T one-arm antibody (antibody, human IgG1, kappa, L234A L235A, N297A, name in Kabat numbering)
light: B1 light with S96T
heavy: B1 heavy
chain: B1 chain
B20: GLS3000 H34E one-arm antibody (antibody, human IgG1, kappa, L234A L235A, N297A, name in Kabat numbering)
light: B1 light with H39E, S96G
heavy: B1 heavy
chain: B1 chain
B21: GLS3000 K107E one-arm antibody (antibody, human IgG1, kappa, L234A L235A, N297A, name in Kabat numbering)
light: B1 light with S96G, K112E
heavy: B1 heavy
chain: B1 chain
B22: GLS3000 K74T one-arm antibody (antibody, human IgG1, kappa, L234A L235A, N297A, name in Kabat numbering)
light: B1 light with K79T, S96G
heavy: B1 heavy
chain: B1 chain
B23: GLS3000 K50L one-arm antibody (antibody, human IgG1, kappa, L234A L235A, N297A, name in Kabat numbering)
light: B1 light with K55L, S96G
heavy: B1 heavy
chain: B1 chain
B24: GLS3000 H34Y one-arm antibody (antibody, human IgG1, kappa, L234A L235A, N297A, name in Kabat numbering)
light: B1 light with H39Y, S96G
heavy: B1 heavy
chain: B1 chain
B25: GLS3000 H34I one-arm antibody (antibody, human IgG1, kappa, L234A L235A, N297A, name in Kabat numbering)
light: B1 light with H39I, S96G
heavy: B1 heavy
chain: B1 chain
B26: GLS3000 L33I one-arm antibody (antibody, human IgG1, kappa, L234A L235A, N297A, name in Kabat numbering)
light: B1 light with L38I, S96G
heavy: B1 heavy
chain: B1 chain
B27: GLS3000 H34N one-arm antibody (antibody, human IgG1, kappa, L234A L235A, N297A, name in Kabat numbering)
light: B1 light with H39N, S96G
heavy: B1 heavy
chain: B1 chain
B28: GLS3000 H34Q one-arm antibody (antibody, human IgG1, kappa, L234A L235A, N297A, name in Kabat numbering)
light: B1 light with H39Q, S96G
heavy: B1 heavy
chain: B1 chain
B29: GLS3000 H34F one-arm antibody (antibody, human IgG1, kappa, L234A L235A, N297A, name in Kabat numbering)
light: B1 light with H39F, S96G
heavy: B1 heavy
chain: B1 chain
B30: GLS3000 K50Y one-arm antibody (antibody, human IgG1, kappa, L234A L235A, N297A, name in Kabat numbering)
light: B1 light with K55Y, S96G
heavy: B1 heavy
chain: B1 chain
B31: GLS3000 K50T one-arm antibody (antibody, human IgG1, kappa, L234A L235A, N297A, name in Kabat numbering)
light: B1 light with K55T, S96G
heavy: B1 heavy
chain: B1 chain
B32: GLS3000 H34L one-arm antibody (antibody, human IgG1, kappa, L234A L235A, N297A, name in Kabat numbering)
light: B1 light with H39L, S96G
heavy: B1 heavy
chain: B1 chain
B33: GLS3000 H34P one-arm antibody (antibody, human IgG1, kappa, L234A L235A, N297A, name in Kabat numbering)
light: B1 light with H39P, S96G
heavy: B1 heavy
chain: B1 chain

target: T1, CD3 epsilon homodimer protein (UniProt P07766 23-126); experiment: SPR Biacore T200, CD3e homodimer on chip, antibody analyte;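 also: CD3 epsilon homodimer amine-coupled on CM4 sensor chip, antibodies injected as analyte at 25 °C in HBS-EP+, ratio ≥0.8 taken as binding retained versus unaltered parent antibody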
T1 construct: Construct of the homodimer is not described; also called CD3 (CD3 epsilon)
T1 sequence (P07766 23-126): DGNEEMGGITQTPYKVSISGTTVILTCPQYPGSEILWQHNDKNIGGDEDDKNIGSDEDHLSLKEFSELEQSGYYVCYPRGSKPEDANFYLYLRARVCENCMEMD

ratio of amounts bound (altered form/GLS3000)	Binder
0.26	B1
0.85	B2
0.16	B3
0.18	B4
0.93	B5
0.78	B6
0.72	B7
0.35	B8
0.24	B9
0.23	B10
2.17	B11
0.3	B12
0.2	B13
0.24	B14
0.89	B15
0.5	B16
0.78	B17

ratio of amounts bound (altered form/GLS3000)	Binder
1.02	B18
0.26	B19
0.23	B20
0.94	B21
0.84	B22
0.24	B23
0.59	B24
0.65	B25
0.83	B26
0.65	B27
0.25	B28
0.27	B29
0.24	B30
0.19	B31
0.59	B32
0.34	B33

From US20240270846A1 (published 2024)
